Experiment: yeast display, Sf9 membrane polyspecificity reagent, FACS + sequencing; frameworks hold sequencing errors
Method in brief: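 Using colony PCR, genes from sorted yeast display clones were amplified, then sequenced on MiSeq at 2 × 250 and filtered by CDR length. The clones had been stained with 10% biotinylated, detergent-solubilized Sf9 membrane reagent for 1 hour at 4 °C and sorted by FACS into low and high (top ~1%) gates on anti-HA and streptavidin fluorescence. Polyreactivity labels come from the gate of origin.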

Sequence	polyreactivity (PSR sort gate)
QVQLVESGGGLVQAGGSLRFSCAASGRTFYFYAMGWYRQAPGKERELVAAIRSSGGSTNYADSVKGRFTISRDNAKNTVYLQMNSLKPEDTAVYYCAAKRRAKGNYAFYYWGQGTQVTVSS	high polyreactivity
QVQLVESGGGLVQAGGSLRFSCAASGRTLGYYTMGWYRQAPGKESELVATITPGGSTNYADSVKGRFTISRDHAKNTVYLQMNRLKPEDTAVYYCAKKKRRGYGYDYWGQGTQVTVSS	high polyreactivity
QVQLVESGGGLVQAGGSLRFSCAASGSIFQHYAMGWYRQAPGKERELVAAISWSGGSTYYADSVKGRFSISRDNAKNTVYLQMNSLKPEDTAVYYCAATKRRFVKFDYWGQGTQVTVSS	low polyreactivity
QVQLVESGGGLVQAGGSLRFSCAASGSIFRVNAMGWYRQAPGKERELVAAITDGGITNYADSVKGRFTISRDNAKNTVYLQMNSLKPEDTAVYYCAADTDRDFHYVVPTYDYWGQGTQVTVSS	low polyreactivity
QVQLVESGGGLVQAGGSLRFSCAASGSIFSLNTMGWYRQAHGKERELVAAITRGGSTYYADSVKGRFTISRDNAKNTVYLQMNSLKPEDTAVYYCAAVPGGNISAPYDYWGQGTQVTVSS	high polyreactivity
QVQLVESGGGLVQAGGSLRFSCAASGSIIFDGNAMAWSRQAPGKEREMVADITTSDGRTYYADSVKGRFTISRDSAKNTVYFQMNSLKPEDTAVYDCAKPNGYHGGRYDYWGQGSQVTVSS	low polyreactivity
QVQLVESGGGLVQAGGSLRFSCAASGSTFLSNAIGWYRLAPGKERELVAAISIGGGRTYYADSVKGRFTISRDNAKNTVYLQMNSLKPEYTAVYYCNAVGRHTDAYHYDYWGQGTQVTVSS	high polyreactivity
QVQLVESGGGLVQAGGSLRFSCAASGSTFRDYAMGWYRQAPGKERELVAAISSRGATTYYADSVKGRFTISRDNAKNTVYLQMNSLKPEDTAVYYCNARQRRNPGGYGYWGQGTQVTVSS	high polyreactivity
QVQLVESGGGLVQAGGSLRFSCAASGSTFSYYTMGWYRQAPGKERELVATISRRGASTYYADSVKGRFTISRDNAKNTVYLQMNSLKPEDTAVYYCAKSYYYGRSATRPEYDYWGQGTQVTVSS	high polyreactivity
QVQLVESGGGLVQAGGSLRFSCAASGSTFYGYVMGWYRQAPGKERELVAAISSSGGRTYYADSVKGRFTIARDYAKNTVYLQMNSLKPEDTAVYYCNTVQRYSTHYDYWGQGTQVTVSS	high polyreactivity
QVQLVESGGGLVQAGGSLRFSCAASGTFVPYAMGWYRQAPGKEMELVARITWRGGSTYYADSVKGRFTISRDNAKNTVYLQMNSLKPEDTAVYYCATVSDNRYYYWGQGSQVTVSS	low polyreactivity
QVQLVESGGGLVQAGGSLRFSCADSGSTFGTYAMGWYRQAPGKERELVAAISWSGGSTYYADSVKGRFTISRDNAKNTVYLQMNSLKPEDTAVYWGQGTQVTVSS	low polyreactivity
QVQLVESGGGLVQAGGSLRFSCGGWGSISEVYAMGWYRPAPGKERELVAAITSGASTNYADSVNGRFTISRDNAKNTVYLQMNSLKPEDTAVYYCAADSDSQWGMDYWGQGTQVTVSS	low polyreactivity
QVQLVESGGGLVQAGGSLRIICAASGRTFATYAMGWYRQAPGKERELVAVISRSGGRTYYADSVKGRFTISRDNAKNTVYLQMNSLKPEDTAVYYCAASYGPSTWTSSYYYWGQGTQVTVSS	high polyreactivity
QVQLVESGGGLVQAGGSLRIICAASGSIFPYYAKGWYRQAPGKERELVARITITGGITYYADSVKGRFSISRDNAKNTVYLQMHSLKPEDTAVYYCAADRDWQYSFRHSVYVYDYDFWGQGTQVTVSS	low polyreactivity
QVQLVESGGGLVQAGGSLRISCAASARIFQVYGMGWYRQAPGKERELVASITYRGGSTYYADSVKGRFTISRDNAKNNVDLQMNSLKPEDTAVYYCAADGAFYASTEMDYWGQGTQVTVSS	low polyreactivity
QVQLVESGGGLVQAGGSLRISCAASGFIFGWYAMGWYRQAPGKERELVAVIRSGGRTNYADSVKGRFTISRDNAKNTVYLQMNSLKPEDTAVYYCNAVGGRGYGGGYWGQGTQVTVSS	high polyreactivity
QVQLVESGGGLVQAGGSLRISCAASGFIFHVYAMGWYRQAPGKERELVAAISSGGSTYYADSVKGRFTISRDNAKNTVYLQMNSLKPEDTAVYYCNVARSRYRYRYDYWGQGTQVTVSS	high polyreactivity
QVQLVESGGGLVQAGGSLRISCAASGFIFKKNAMGWYRQAPGKERELVAAITSSGGSTYYADSVKGRFTISRDNAKNTVYFQMNSLKPEDSAVYYCARDKEQQGYRLFGYWGQGTQVTVSS	high polyreactivity
QVQLVESGGGLVQAGGSLRISCAASGFIFPYNSMGWYREAPGKERELVARISSGGSTNYADSVKGRFTISRDNAKNTVYLQMHSLKPEDTAVYYCNARYRWGWTYLRYGSYDYWGQGTQVTVSS	high polyreactivity
QVQLVESGGGLVQAGGSLRISCAASGFIFQYNTMGWYRQAPGKERELVAVITRTGSTNYADSVKGRFTISRDNAKNTVYLQMNSLKPEDTAVYFCATSFYSRPRKARYYYWGQGTQVTVSS	high polyreactivity
QVQLVESGGGLVQAGGSLRISCAASGFIFSRNAMGWYRQAPGKERELVAAISAGGGSTYYADSVKGRFTISRDNAKNTVYLQMNSLKPEDSAVYSCAAYFRSQFGYWGQGTQVTVSS	high polyreactivity

Sequence	polyreactivity (PSR sort gate)
QVQLVESGGGLVQAGGSLRISCAASGFIFVRYAMGWYRQAPGKEREFVAVISRRGGSTHYADSVKGRFTISRDNAKNTVYLQMNSLKPEDTAVYYCAAVRRVYSQNDYWGQGSQVTVSS	high polyreactivity
QVQLVESGGGLVQAGGSLRISCAASGFILYYYAMGWYRQAPGKERELVAAISRNGGRTYYAVSVKGRFTISRDNAKNTVYLQMNSLKPEDTAVYYCNKGVSRTLSSAYDYWGQVTQVTVSS	high polyreactivity
QVQLVESGGGLVQAGGSLRISCAASGFISYYYAMGWYRQAPGKERELVAAITKSGGSTYYADSVKGRFTISRDNAKNTVYLQMNSLKPDDTAVYYCAADRSTRNSTSRLYGYWGQGTQVTVSS	low polyreactivity
QVQLVESGGGLVQAGGSLRISCAASGFSFRYYAMGWYRQAPGKERELVAAISGSGGSTYYADSVKGRFTISRDNAKNTVYLQMNSLKPEDTAVYYCARYYTYREYDYWGQATQVTVSS	high polyreactivity
QVQLVESGGGLVQAGGSLRISCAASGFTFPYYAMGWYRQAPGKERELVAAISYNGGSTYYADSVKGRFTISRDNAKNTVYLQMNSLKPEDTAVYYCNAVYYDSGVVGYYYWGQGTQVTVSS	high polyreactivity
QVQLVESGGGLVQAGGSLRISCAASGFTFRKYTMGWYRQAPGKERELVAAISRRGGSTYYADSVKGRFTISRDNAKNTVYFQMNSLKPEVTAVYYCATDHIPSVGVDYWGQGTQVTVSS	high polyreactivity
QVQLVESGGGLVQAGGSLRISCAASGFTFRYYALGWYRQAPGKERELVAAILSSGGSTYYADSVKGRFTISRDNAKNTVYLQINSLKPVDTAVYYCNKVWDRRYDYWGQGTQVTVSS	high polyreactivity
QVQLVESGGGLVQAGGSLRISCAASGFTFRYYAMGWYRQAPGKERELVATISTGSGVSTYYADSVKGRFTISRDNAKNTVYLQMNSLKPEDTAVYYCAADYDSYYAYRTPYGYWGQGTQVTVSS	low polyreactivity
QVQLVESGGGLVQAGGSLRISCAASGFTFWRYALGWYRQAPGKERELVAAISTGGSTNYADSVKGRFTISRDNAKNTVYLQMNSLKPEDTAVYYCNRQWNFTPYRRNYWGQGTQVTVSS	high polyreactivity
QVQLVESGGGLVQAGGSLRISCAASGFTFYRYAMGWYRPAPGKERELVASIRRSDGSTSYADSVKGRFTISRDNAKNTFYLQMNSLKPEDTAVYYCAARYAGSSRYDYWGQGTQVTVSS	high polyreactivity
QVQLVESGGGLVQAGGSLRISCAASGFTFYYNAMGCYRQAPVKERELVAIRFRGGNTYYAYSVKGRFTISRDNAKITVYLQMNSLKPEDTAVYYCTADDRGSTYVYFDYWGQGTQVTVSS	low polyreactivity
QVQLVESGGGLVQAGGSLRISCAASGGTFHRYAMGWYRQAPGKERELVAAISGSGASTYYADSVKGRFTISRDNAKNTVYLQMNSLKPEDTAVYYCNAYYYPYWYRYYYWGQGTQVTVSS	high polyreactivity
QVQLVESGGGLVQAGGSLRISCAASGIILSDNAMGWYRQAPGKEREFVAAITGSGGSTYYADSVKGRFTISRDNAKNTVYLQMNSLKPEDTAVYYCAADGPYGYYYGHYGYWGQGTQVTVSS	low polyreactivity
QVQLVESGGGLVQAGGSLRISCAASGITFRWYAMGWYRQAPGKERELVAGINSSGGSTNYADSVKGRFTISRDNAKNTVYLQMNSLKPADTAVYYCNADLRSEYDYWGQGTQETVSS	low polyreactivity
QVQLVESGGGLVQAGGSLRISCAASGITFTGYAMGWYRQAPGKEKELVAAIRGGGNTYYADSVKGRFTISRDNAKNTVYLQMNSLKPEDTAVYYCATSYASYTYWYDYWGQGTQVTVSS	low polyreactivity
QVQLVESGGGLVQAGGSLRISCAASGITITSYAMGWYRQAPGKEWELVASIDSDDSTNYADSVKGRFTISRDNAKNTVYFQMNSLKPEDNAVYYSAATSKPLGLKTYGYWGQGTQVTVSS	low polyreactivity
QVQLVESGGGLVQAGGSLRISCAASGITLYDNVMGWYRQAPGKERELVAAISSSGTTKYYADSVKGRFTMSRDHANNTVYLQMNSLKPEDTAGSYCAADGITWYAIAYYYWGQGTQVTVSS	high polyreactivity
QVQLVESGGGLVQAGGSLRISCAASGITLYFYAMGWYRQAPGKERELVAGISGSVGSTHYADSVKGRFSISRDNAKNTVYLQMNSLKPEDTAVYYCAARALTWSRVPRYNYWGQGTQVTVSS	high polyreactivity
QVQLVESGGGLVQAGGSLRISCAASGLTFEVYAMGWYRQAPGIERELVATITYSGGITYYADSVKGRFTISRDNAKNTVYLQMNSLKPEDTAVYYRIGFGGDYDYWGQGTQVTVSS	low polyreactivity
QVQLVESGGGLVQAGGSLRISCAASGLTFGKYAMGWYRQEPGKERELVAAISWSVTSTYYADSVKGRFTISRDNAKNTVYLQMNSLKPEDTAVYYCAAEIIKLAYRVAYYYWGQGTQVTVSS	high polyreactivity
QVQLVESGGGLVQAGGSLRISCAASGLTSVTYAMGWYRQAPGKERELVAAITSRAGSTYYADSVKGRFTISRDNAKNTVYLQMNSLKPEDTAVYYCAKDIIRKVYAGYVGRYDYWGQGTQVTVSS	low polyreactivity

Source: the nanobody polyreactivity screen of Harvey et al. (2022)
